In general, Kd refers to the free concentration of one partner at which half of the binding sites on the other are occupied at equilibrium, for simple one-to-one binding. Read a high Kd as lower affinity.

The results in this text go back to PMC11809415 (The Journal of Cell Biology, 2025).

The test addresses F-actin (rabbit skeletal muscle α-actin filaments) (rabbit, UniProt P68135 1-377). Briefly: co-sedimentation; 2 µM F-tractinopt-mCherry fusions incubated with F-actin at increasing concentrations for 5 min at room temperature, 120,000 g for 20 min at 4°C; supernatant and pellet on SDS-PAGE, densitometry; Kd by GraphPad Prism. As to conditions: both partners purified.

B1: F-tractinopt–mCherry fusion (domain or fragment)
chain: APRRSVGELRLLFEARAASAA
notes: rat inositol 1,4,5-trisphosphate 3-kinase A; numbers count on: the 43-residue F-tractin peptide (peptide residue n = kinase residue n+9); source: E. coli BL21-CodonPlus(DE3)-RIPL, purified (Protino Ni-IDA resin)
The molecule B1 had a Kd of 8.5 ± 1.2 µM.
